According to patent publication US20230235054A1 (BIOATLA, published 2023):
Where a chain is given by its changes, count along the chain named.

Assays:
[1] = biological target: T1, recombinant human Nectin4 antigen (human, UniProt Q96NY8 32-349); experiment: ELISA, coated antigen, PSB pH 6.0
T1 construct: construct not described
T1 sequence (looked up): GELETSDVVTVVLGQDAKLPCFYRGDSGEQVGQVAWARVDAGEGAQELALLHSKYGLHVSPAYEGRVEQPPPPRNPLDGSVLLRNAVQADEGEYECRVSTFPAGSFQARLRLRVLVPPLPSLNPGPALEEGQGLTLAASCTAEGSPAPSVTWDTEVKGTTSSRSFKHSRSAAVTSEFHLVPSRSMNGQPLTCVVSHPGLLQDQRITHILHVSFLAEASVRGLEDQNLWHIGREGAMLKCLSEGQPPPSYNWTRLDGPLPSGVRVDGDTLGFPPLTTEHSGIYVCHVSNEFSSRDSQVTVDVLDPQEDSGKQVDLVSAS
Protocol: 1) Coat ELISA plates with 100 μL of 1 μg/mL recombinant human Nectin4 antigen or cynoNectin4 antigen in carbonate-bicarbonate coating buffer. […] 2) Cover plates with sealing film and incubate overnight at 4° C. [0444] 3) Decant plates and tap out residual liquid on a stack of paper towels. [0445] 4) Wash wells twice by dispensing 200 μL of pH 6.0 or pH 7.4 ELISA incubation buffer to the wells and completely aspirate the contents. [0446] 5) Add 200 μL of pH 6.0 or pH 7.4 ELISA incubation buffer to the wells. Cover with sealing film and place the plate onto a plate shaker set to 50 rpm for 60 minutes at room temperature. [0447] 6) Decant plates and tap out residual liquid on a stack of paper towels. […] 7) Serially dilute test articles in 3-fold dilutions starting at 3000 ng/mL in pH 6.0 or pH 7.4 ELISA incubation buffer. […] 8) Add 100 μL/well of diluted test articles to the plates [0450] 9) Cover with sealing film and place the plates onto a plate shaker set to 50 rpm for 60 minutes at room temperature. [0451] 10) Decant plates and tap out residual liquid on a stack of paper towels. [0452] 11) Wash wells three times by dispensing 200 μL of pH 6.0 or pH 7.4 ELISA wash buffer to the wells and completely aspirate the contents. […] 12) Dilute the HRP secondary antibody at 1:2500 in pH 6.0 or pH 7.4 ELISA incubation buffer. [0454] […] 14) Cover with sealing film and place the plates onto a plate shaker set to 50 rpm for 60 minutes at room temperature. […] 15) Decant plates and tap out residual liquid on a stack of paper towels. […] 16) Wash wells three times by dispensing 200 μL of pH 6.0 or pH 7.4 ELISA wash buffer to the wells and completely aspirate the contents. [0458] 17) Dispense 50 μL per well of the TMB substrate solution into all wells of the plates.

huNectin4-His = biological target: T2, huNectin4-His (human, UniProt Q96NY8 32-349); experiment: SPR, huNectin4-His immobilized, pH 6.5
T2 construct: Immobilized on the SPR chip; also called humanNectin4; human Nectin4; not shown: His tag
T2 sequence (looked up): T1 sequence (looked up)
Protocol: (§1) Binding kinetics of anti-Nectin4 antibodies were measured by surface plasmon resonance using a SPR2/4 instrument (Sierra Sensors, Hamburg, Germany) and flat amine sensor chips. The SPR sensor contained four flow cells (FC1-FC4), each of which was addressed individually or in groups. huNectin4-His was immobilized in FC2, and cynoNectin4-mFc in FC4. No protein was immobilized in FC1 and FC3 which were used as control surfaces for FC2 and FC4, respectively.
(§2) All injections were done at a flow rate of 25 μL/min at 25° C. The sensor surface was activated with 1-ethyl-3-(3-dimethylaminopropyl)-carbodiimide (EDC) and N-hydroxysuccinimide (NHS) (200 mM/50 mM) for 480 seconds. HuNectin4-His (2 μg/mL in 10 mM NaAc, pH4.5) was injected for 480s and the surface was inactivated by injecting 1M ethanolamine-HCl for 480s. CynoNectin4 was immobilized using the same conditions as described for huNectin4-His, except that the cynoNectin4 was diluted into 10 mM NaAc buffer having pH 5.0. The control surface was activated and deactivated using the same conditions, but without injecting protein. PBST buffer (PBS pH 7.4 with 0.05% TWEEN20™) was used as running buffer for the surface preparation. The running solution was switched to PBST with 30 mM sodium bicarbonate with the pH adjusted as indicated in the figures before the analyte injections. The instrument was equilibrated with the running solution for one hour before the first analyte injection.
(§3) The off-rate was measured for 360s. The chip surface was regenerated after each cycle of interaction analysis by injecting 6 μL of 10 mM glycine (pH 2.0). Flow cells 1 and 3 without immobilized protein were used as control surfaces for reference subtraction.

cynoNectin4-mFc = biological target: T3, cynoNectin4-mFc (cyno, UniProt A0A2K5WES1 32-349); experiment: SPR, cynoNectin4-mFc immobilized, pH 7.4
T3 construct: Immobilized on the SPR chip; also called cyanoNectin4; not shown: mFc (mouse Fc)
T3 sequence: T1 sequence (looked up) with V39A, I230V
Protocol: as §1, §2, §3

B1: BAP-143-wildtype (antibody, V domains shown)
VH: EVQLVESGGGLVQPGGSLRLSCAASGFTFSSYNMNWVRQAPGKGLEWVSYISSSSSTIYYADSVKGRFTISRDNAKNSLSLQMNSLRDEDTAVYYCARAYYYGMDVWGQGTTVTVSS
VL: DIQMTQSPSSVSASVGDRVTITCRASQGISGWLAWYQQKPGKAPKFLIYAASTLQSGVPSRFSGSGSGTDFTLTISSLQPEDFATYYCQQANSFPPTFGGGTKVEIK
notes: 150 kDa used in SPR; also called BAP143-00-00; benchmark (BM)
Q: Which results are given for B1?
A: EC50 [1]: 0.0316 µg/mL; Kd (huNectin4-His): 0.685 nM; Kd (cynoNectin4-mFc): 0.333 nM

B2: BAP-143-00-03 (antibody, V domains shown)
VH: B1 VH
VL: B1 VL with P96D
notes: Used as a conjugate with a linker payload (CAB ADC)
Q: Which results are given for B2?
A: EC50 [1]: 0.0344 µg/mL; Kd (huNectin4-His): 2.97 nM; koff (huNectin4-His): 0.00229 s⁻¹; kon (huNectin4-His): 771000 M⁻¹ s⁻¹; Kd (cynoNectin4-mFc): 3.85 nM; koff (cynoNectin4-mFc): 0.000826 s⁻¹; kon (cynoNectin4-mFc): 215000 M⁻¹ s⁻¹

B3: BAP-143-00-01 (antibody, V domains shown)
VH: B1 VH
VL: B1 VL with L33E
notes: as for B2
Q: What does the source list for B3?
A: EC50 [1]: 0.0313 µg/mL; Kd (huNectin4-His): 5.15 nM; koff (huNectin4-His): 0.00245 s⁻¹; kon (huNectin4-His): 476000 M⁻¹ s⁻¹; Kd (cynoNectin4-mFc): 11.1 nM; koff (cynoNectin4-mFc): 0.00162 s⁻¹; kon (cynoNectin4-mFc): 146000 M⁻¹ s⁻¹

B4: BAP-143-00-06 (antibody, V domains shown)
VH: B1 VH with M104D
VL: B1 VL
notes: as for B2
Q: Which results are given for B4?
A: EC50 [1]: 0.0247 µg/mL; Kd (huNectin4-His): 0.22 nM; koff (huNectin4-His): 0.000726 s⁻¹; kon (huNectin4-His): 3.3e+06 M⁻¹ s⁻¹; Kd (cynoNectin4-mFc): 0.4 nM; koff (cynoNectin4-mFc): 0.000335 s⁻¹; kon (cynoNectin4-mFc): 839000 M⁻¹ s⁻¹

B5: BAP-143-00-02 (antibody, V domains shown)
VH: B1 VH
VL: B1 VL with F94E
notes: as for B2
Q: With B5 as the binder, how does the EC50 [1] read?
A: Its EC50 is 0.0876 µg/mL.

Q: What about the Kd (cynoNectin4-mFc) of the same binder?
A: The Kd was 5.86 nM.

Q: What about the koff (cynoNectin4-mFc) of the same binder?
A: The koff was 0.00195 s⁻¹.

Q: And the kon (cynoNectin4-mFc)?
A: Its kon is 334000 M⁻¹ s⁻¹.

B6: BAP-143-00-04 (antibody, V domains shown)
VH: B1 VH with M34D
VL: B1 VL
notes: as for B2
Q: With B6 as the binder, how does the EC50 [1] read?
A: Its EC50 is 0.0258 µg/mL.

Q: And the Kd (huNectin4-His)?
A: Its Kd is 1.5 nM.

Q: What about the koff (huNectin4-His) of the same binder?
A: The koff was 0.00439 s⁻¹.

Q: And the kon (huNectin4-His)?
A: The kon was 2.94e+06 M⁻¹ s⁻¹.

Q: What about the Kd (cynoNectin4-mFc) of the same binder?
A: The Kd was 1.33 nM.

Q: What about the koff (cynoNectin4-mFc) of the same binder?
A: The koff was 0.00112 s⁻¹.

Q: And the kon (cynoNectin4-mFc)?
A: Its kon is 840000 M⁻¹ s⁻¹.

B7: BAP-143-00-05 (antibody, V domains shown)
VH: B1 VH with R98E
VL: B1 VL
notes: as for B2
Q: What does the source list for B7?
A: EC50 [1]: 0.0441 µg/mL; Kd (huNectin4-His): 6.23 nM; koff (huNectin4-His): 0.00453 s⁻¹; kon (huNectin4-His): 726000 M⁻¹ s⁻¹; Kd (cynoNectin4-mFc): 4.89 nM; koff (cynoNectin4-mFc): 0.00157 s⁻¹; kon (cynoNectin4-mFc): 322000 M⁻¹ s⁻¹
